The results in this text go back to patent US20030186284A1.

The assay concerns the target proteoglycan-type receptor-type protein tyrosine phosphatase (PTP?), mouse (mouse) (UniProt B9EKR1). Briefly: cell-based or functional assay.
UniProt B9EKR1, sequence (B9EKR1 25-2312): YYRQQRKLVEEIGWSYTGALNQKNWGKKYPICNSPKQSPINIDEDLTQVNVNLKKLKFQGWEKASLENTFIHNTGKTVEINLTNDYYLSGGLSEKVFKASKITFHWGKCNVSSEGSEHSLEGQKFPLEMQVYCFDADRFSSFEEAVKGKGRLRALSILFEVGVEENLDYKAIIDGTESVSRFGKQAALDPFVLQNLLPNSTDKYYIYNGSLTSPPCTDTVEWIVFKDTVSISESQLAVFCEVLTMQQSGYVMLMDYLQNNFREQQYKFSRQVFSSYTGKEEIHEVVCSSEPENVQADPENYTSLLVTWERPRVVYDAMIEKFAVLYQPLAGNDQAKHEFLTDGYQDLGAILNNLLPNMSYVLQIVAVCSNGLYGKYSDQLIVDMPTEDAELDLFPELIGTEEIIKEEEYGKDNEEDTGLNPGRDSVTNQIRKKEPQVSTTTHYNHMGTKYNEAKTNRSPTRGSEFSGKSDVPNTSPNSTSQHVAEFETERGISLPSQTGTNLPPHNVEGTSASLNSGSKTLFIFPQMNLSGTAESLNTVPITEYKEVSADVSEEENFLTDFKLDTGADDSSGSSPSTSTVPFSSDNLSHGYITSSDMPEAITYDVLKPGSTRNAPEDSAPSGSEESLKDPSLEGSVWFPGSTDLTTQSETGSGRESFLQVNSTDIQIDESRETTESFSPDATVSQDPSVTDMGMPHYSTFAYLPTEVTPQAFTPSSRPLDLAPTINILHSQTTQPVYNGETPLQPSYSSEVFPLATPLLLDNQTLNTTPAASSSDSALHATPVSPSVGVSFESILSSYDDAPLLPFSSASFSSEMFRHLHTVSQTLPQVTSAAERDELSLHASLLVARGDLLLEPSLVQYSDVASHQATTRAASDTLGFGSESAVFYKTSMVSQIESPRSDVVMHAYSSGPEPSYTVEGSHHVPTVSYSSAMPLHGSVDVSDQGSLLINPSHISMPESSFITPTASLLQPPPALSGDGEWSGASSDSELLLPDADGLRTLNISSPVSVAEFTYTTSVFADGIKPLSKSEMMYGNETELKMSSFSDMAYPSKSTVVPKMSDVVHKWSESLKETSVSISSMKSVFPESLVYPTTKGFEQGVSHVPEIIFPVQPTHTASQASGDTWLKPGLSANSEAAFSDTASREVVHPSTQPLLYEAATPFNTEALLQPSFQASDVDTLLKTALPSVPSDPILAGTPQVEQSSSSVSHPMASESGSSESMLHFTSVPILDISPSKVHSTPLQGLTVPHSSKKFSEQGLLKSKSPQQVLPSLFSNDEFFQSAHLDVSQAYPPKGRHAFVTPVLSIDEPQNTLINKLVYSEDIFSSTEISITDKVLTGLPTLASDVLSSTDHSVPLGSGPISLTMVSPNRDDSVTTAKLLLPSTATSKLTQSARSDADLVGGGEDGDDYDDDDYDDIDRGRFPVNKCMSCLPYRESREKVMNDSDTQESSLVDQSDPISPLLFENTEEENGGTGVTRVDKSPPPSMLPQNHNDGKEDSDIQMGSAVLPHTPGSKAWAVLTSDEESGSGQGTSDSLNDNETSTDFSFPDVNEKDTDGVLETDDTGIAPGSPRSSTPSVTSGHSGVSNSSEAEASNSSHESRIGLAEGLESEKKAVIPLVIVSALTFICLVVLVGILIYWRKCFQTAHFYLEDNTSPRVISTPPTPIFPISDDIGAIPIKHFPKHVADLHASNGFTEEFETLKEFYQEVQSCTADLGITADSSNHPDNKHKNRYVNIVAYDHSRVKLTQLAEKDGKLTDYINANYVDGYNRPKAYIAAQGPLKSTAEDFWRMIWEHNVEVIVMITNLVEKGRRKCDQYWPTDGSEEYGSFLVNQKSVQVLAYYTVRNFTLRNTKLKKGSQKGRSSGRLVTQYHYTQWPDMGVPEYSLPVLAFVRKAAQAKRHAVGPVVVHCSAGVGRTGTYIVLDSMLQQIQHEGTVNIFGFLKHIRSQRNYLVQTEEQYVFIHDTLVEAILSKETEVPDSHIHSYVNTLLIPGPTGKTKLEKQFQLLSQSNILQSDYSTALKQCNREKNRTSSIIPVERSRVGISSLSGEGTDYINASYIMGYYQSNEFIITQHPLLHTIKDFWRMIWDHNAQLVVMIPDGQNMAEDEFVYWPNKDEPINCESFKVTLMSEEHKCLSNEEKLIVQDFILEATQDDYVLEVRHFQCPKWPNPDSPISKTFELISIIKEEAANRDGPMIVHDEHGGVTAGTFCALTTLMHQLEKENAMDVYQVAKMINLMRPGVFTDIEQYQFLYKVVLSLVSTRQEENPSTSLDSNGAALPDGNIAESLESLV

Consider “VacA, a toxin of Helicobacter pylori (ligand)”, for which the epithelial damage score (EDS), wild-type (PTP?+/+) mice, VacA 0.125 mg/kg (score (scale 1-4)) was 1.8; the epithelial damage score (EDS), wild-type (PTP?+/+) mice, VacA 0.250 mg/kg (score (scale 1-4)) turned out to be 2.2; the inflammation score (IS), wild-type (PTP?+/+) mice, VacA 0.125 mg/kg (score (scale 1-4)) is 1.4; the inflammation score (IS), wild-type (PTP?+/+) mice, VacA 0.250 mg/kg (score (scale 1-4)) is 1.4.
